Measured values published in PMC12544700, “Identification of a Small Secretoneurin Derivative That Inhibits CaMKIIδ Activity” (Journal of Cellular and Molecular Medicine, 2025).

Experiments:
CaMKIIδ (Homo sapiens) = CaMKIIδ (Homo sapiens) (UniProt Q13557); settings: cited from earlier work
[1] = biological target: biotinylated SN‐db‐short [SN (7–26, L17F, V20F)] (human); experiment: SPR; Biacore X100, room temperature; biotin‐ahx‐SN‐db‐short immobilised on a streptavidin chip (58 RU); His‐CaMKIIδ‐T287D 0.06–1 μM injected, single‐cycle; HEPES running buffer with 2.5 mM Ca2+; 1:1 Langmuir fit; average of three experiments

Chain of Secretoneurin (P13521 182-214): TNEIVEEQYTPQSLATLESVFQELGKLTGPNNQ
Chain of CaMKIIδ (Homo sapiens) (Q13557 2-499, stated change not applied): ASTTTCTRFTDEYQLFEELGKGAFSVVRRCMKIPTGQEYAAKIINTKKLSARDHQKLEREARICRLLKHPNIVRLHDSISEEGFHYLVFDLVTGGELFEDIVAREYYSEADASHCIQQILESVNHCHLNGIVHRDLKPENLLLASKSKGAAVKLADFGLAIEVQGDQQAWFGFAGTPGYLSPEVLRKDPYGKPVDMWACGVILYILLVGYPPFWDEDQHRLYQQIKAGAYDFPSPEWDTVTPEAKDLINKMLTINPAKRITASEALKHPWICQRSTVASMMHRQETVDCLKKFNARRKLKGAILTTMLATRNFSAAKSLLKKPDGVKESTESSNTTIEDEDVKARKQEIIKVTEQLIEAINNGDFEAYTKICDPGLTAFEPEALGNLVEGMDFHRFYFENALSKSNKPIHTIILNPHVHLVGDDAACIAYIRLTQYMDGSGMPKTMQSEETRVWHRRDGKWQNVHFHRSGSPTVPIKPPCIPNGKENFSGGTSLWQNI

Row | Kd [1] [nM] | koff [1] [s⁻¹] | kon [1] [M⁻¹ s⁻¹] | Substance | Kd (CaMKIIδ (Homo sapiens)) [nM]
1 | – | – | – | Secretoneurin (from UniProt P13521) | 80
2 | 68 | 0.00057 | 14000 | recombinant His‐CaMKIIδ‐T287D (species not named for the experiment) (from UniProt P15791 1-533) (enzyme) | –
